Experimental data published in patent US20050129695A1 (published 2005).

B1: anti-Aβ monoclonal antibody C705 (antibody, V domains shown)
VH: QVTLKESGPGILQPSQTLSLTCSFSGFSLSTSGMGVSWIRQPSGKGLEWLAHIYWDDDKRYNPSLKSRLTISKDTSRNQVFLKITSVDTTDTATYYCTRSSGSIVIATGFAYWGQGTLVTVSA
VL: DVMMTQTPLSLPVSLGDQASISCRSSQSLVHSNGNTYLEWYMQKPGQSPMLLIYKVSNRFSGVPDRFSGSGSGTDFTLKISSVEAEDLGVFYCFQGSRVPLTFGAGTKLELKR
notes: Tested as protein G purified IgG, detected with goat anti-mouse IgG; also called C705 mAb
B2: anti-Aβ monoclonal antibody C707 (antibody, V domains shown)
VH: EVQLQQSGPDLVKPGASVKTSCKTSGYSFTEYIMSWVRQSHGKSLEWIGSINPNTGGSRYNQKFKGKATLTVDKSSSTAYMEFRSLTSEDSAVYYCARGDFDYWGQGTTLTVSS
VL: DIVMTQAAFSNPVTLGTSASISCRSSKNLLHSNGITYLYWYLQRPGQSPQLLISRVSNLASGVPNRFSGSESGTDFTLRISRVEAEDVGVYYCAQLLELPFTFGSGTKLEIKR
notes: Tested as protein G purified IgG, detected with goat anti-mouse IgG; also called C707 mAb
B3: anti-Aβ monoclonal antibody C701 (antibody, V domains shown)
VH: EGQLQQSGAELVRSGASLKLSCTASGFNIKDHYVHWVRQRPEQGLDWIGWIAPKNGYSESAPKFQGKASMTADTSSNTVYLQLSSLTSEDTAVYYCFAGFYDSSLYWGQGTTLTVSS
VL: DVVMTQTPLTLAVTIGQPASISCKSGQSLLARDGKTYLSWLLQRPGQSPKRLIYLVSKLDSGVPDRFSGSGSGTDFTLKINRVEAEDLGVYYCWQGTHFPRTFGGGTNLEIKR
notes: Tested as protein G purified IgG, detected with goat anti-mouse IgG; also called C701 mAb
B4: anti-Aβ monoclonal antibody C706 (antibody, V domains shown)
VH: QVQLQQSGPELMKPGASVKISCKATGYTFSTSWIEWIKQRPGHGLEWIGEVLPGSGKSNHNANFKGRATFTADTASNTAYMQLSSLTSEDSAVYYCAREGSNNNALAYWGQGTLVTVSA
VL: QIVLTQSPAIMSASPGEKVTMTCSASSSVSYMHWYQQKSGTSPKRWIYDSSRLASGVPSRFSGGGSGTSYSPTISNMEAEDAATYFCQNWRSSPTFGAGTKLELKR
notes: Tested as protein G purified IgG, detected with goat anti-mouse IgG; also called C706 mAb

target: T1, human Aβ1-42 (human, UniProt P05067 672-713); experiment: BIAcore 3000, antibody amine-coupled to CM5, peptide injected; qualitative
T1 construct: domain: Aβ1-42; same polypeptide, aggregation state differs; also called Aβ42; 1-42 peptide
T1 sequence (P05067 672-713 limits assumed): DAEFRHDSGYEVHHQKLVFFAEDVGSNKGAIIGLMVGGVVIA
Procedure: (§1) BIAcore 3000, CM5 sensor surface, amine coupling kit, HEPES buffered saline (HBS, 10 mM HEPES 150 mM NaCl, pH7.4 with 3 mM EDTA and 0.005% Tween-20) and 10 mM sodium acetate pH 4.5 were purchased from Biacore, Inc. (Piscataway, N.J.). Anti-Aβmonoclonal antibodies (100 ug/mL) were dialyzed against HBS diluted 1:10 with water. Then, the dialyzed mAb solution was diluted 1:10 into 10 mM sodium acetate pH 4.5. The CM5 sensor surface was equilibrated in the BIAcore 3000 with HBS. Each antibody was immobilized onto a flow cell using the immobilization wizard provided in the operating software and the protocols supplied with the amine coupling kit. The wizard was set to immobilize 2500 RU of antibody. Typically 2000-3000 RU were actually immobilized.
(§2) For each mAb response, data as a function of time were collected (FIG. 46). From the sensorgram, report points are taken 10 seconds prior to the injection of the peptide, 10 seconds prior to the completion of the association phase, and 60 seconds into the dissociation phase. […] These calculations are made possible by assuming that 1 RU=1 pg of peptide (or protein)/mm².
(§3) Due to the potentially multiple aggregation states of the 1-38 and 1-42 peptides, a quantitative analysis of the binding constants is not possible. However, a qualitative analysis is possible. FIG. 47 ranks the mAbs as a function of binding ratio and fraction remaining on the surface after 60 seconds reflecting the stability of the complex. From this analysis C705 and C707 appear to be capable of binding to “monomeric” peptide, where as C701 and C706 requires the peptide to be aggregated to some extent before they can bind.

Binder | binding result
B1 | binds
B2 | binds
B3 | binds
B4 | binds

target: T2, Aβ38 peptide (1-38) (UniProt P05067 672-709); experiment: as above
T2 construct: domain: Aβ38 (1-38 peptide); Injected over immobilized antibodies in BIAcore; also called 1-38 peptide
T2 sequence (P05067 672-709 limits assumed): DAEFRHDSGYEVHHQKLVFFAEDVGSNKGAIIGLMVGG
Procedure: as §1, §2, §3

Binder | binding result
B1 | binds
B2 | binds
B3 | binds
B4 | binds
